These results are taken from article PMC3390394.

Assay [1] addresses Arabidopsis thaliana dihydrodipicolinate synthase 2 (At-DHDPS2) (Arabidopsis thaliana) (UniProt Q9FVC8). The assay can be described thus: AUC; sedimentation velocity, c(s) analysis (SEDFIT); 20 mM Tris-HCl, 150 mM NaCl, pH 8.0, 20°C; At-DHDPS2 at 0.75 mg/mL, 50,000 rpm; At-DHDPR2 at 0.1-1.6 mg/mL, 40,000 rpm.
Assay [2] shares this target. The assay can be described thus: SEC-MALS; Malvern P3000 column with Viscotek TDA (refractive index, low angle and right angle light scattering); 100 µL of 1.0 mg/mL; 20 mM Tris-HCl, 150 mM NaCl, pH 8.0; 28°C. Background: SEC sorts molecules by how far they enter the pores of the column.

Chain of Arabidopsis thaliana dihydrodipicolinate synthase 2 (At-DHDPS2) (Q9FVC8 40-365): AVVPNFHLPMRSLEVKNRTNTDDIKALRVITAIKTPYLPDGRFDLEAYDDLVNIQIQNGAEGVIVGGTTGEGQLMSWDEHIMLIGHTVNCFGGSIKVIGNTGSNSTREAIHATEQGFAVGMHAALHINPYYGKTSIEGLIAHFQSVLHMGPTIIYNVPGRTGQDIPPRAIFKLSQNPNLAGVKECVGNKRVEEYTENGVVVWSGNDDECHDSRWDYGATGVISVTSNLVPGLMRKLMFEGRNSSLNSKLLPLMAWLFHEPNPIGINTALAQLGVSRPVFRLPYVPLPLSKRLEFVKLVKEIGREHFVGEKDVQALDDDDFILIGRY

Consider “Arabidopsis thaliana dihydrodipicolinate synthase 2 (At-DHDPS2) (from UniProt Q9FVC8 40-365) (enzyme)”, for which the stoichiometry N in assay [1] and in assay [2] was 4 throughout.

What is called stoichiometry N is a count of units in the complex or per binding partner.
